Reference: paper PMC4854415, “The Human Sodium-Glucose Cotransporter (hSGLT1) Is a Disulfide-Bridged Homodimer with a Re-Entrant C-Terminal Loop” (PLoS ONE, 2016)

Target: the molecule itself
Assay: SDS-PAGE without reducing agent and western blot; total membrane preparation of oocytes expressing myc-tagged hSGLT1, 7.5 or 10% polyacrylamide gel, absence of β-Mercaptoethanol, detected with α-c-myc

B1: wt myc-tagged human sodium-glucose cotransporter 1 (hSGLT1) (natural protein, UniProt P13866 1-664, looked up)
chain: MDSSTWSPKTTAVTRPVETHELIRNAADISIIVIYFVVVMAVGLWAMFSTNRGTVGGFFLAGRSMVWWPIGASLFASNIGSGHFVGLAGTGAASGIAIGGFEWNALVLVVVLGWLFVPIYIKAGVVTMPEYLRKRFGGQRIQVYLSLLSLLLYIFTKISADIFSGAIFINLALGLNLYLAIFLLLAITALYTITGGLAAVIYTDTLQTVIMLVGSLILTGFAFHEVGGYDAFMEKYMKAIPTIVSDGNTTFQEKCYTPRADSFHIFRDPLTGDLPWPGFIFGMSILTLWYWCTDQVIVQRCLSAKNMSHVKGGCILCGYLKLMPMFIMVMPGMISRILYTEKIACVVPSECEKYCGTKVGCTNIAYPTLVVELMPNGLRGLMLSVMLASLMSSLTSIFNSASTLFTMDIYAKVRKRASEKELMIAGRLFILVLIGISIAWVPIVQSAQSGQLFDYIQSITSYLGPPIAAVFLLAIFWKRVNEPGAFWGLILGLLIGISRMITEFAYGTGSCMEPSNCPTIICGVHYLYFAIILFAISFITIVVISLLTKPIPDVHLYRLCWSLRNSKEERIDLDAEEENIQEGPKETIEIETQVPEKKKGIFRRAYDLFCGLEQHGAPKMTEEEEKAMKMKMTDTSEKPLWRTVLNVNGIILVTVAVFCHAYFA
notes: human sodium-glucose cotransporter 1 (hSGLT1), wild type; Dimer held by a disulfide bridge between the C355 residues of two molecules, by non-reducing western blot; also called wt hSGLT1; wtSGLT1; source: Xenopus laevis oocytes injected with mRNA, total membrane preparation
- stoichiometry N: 2
